Target: T1, Recombinant Human DLL4 (delta-like protein 4) (human, UniProt Q9NR61 27-524)
T1 construct: Bought recombinant human DLL4 (R&D Systems Cat#1506-D4/CF) coated on the ELISA plate; also called rHuman DLL4; Delta-like ligand 4
Assay: ELISA, DLL4 coated on plate, 100 nM Fab

Binder | ELISA Signal-blank (100 nM Fab)
Fab VH5-51_IGHD5-18*01>3_IGHJ4*01 G100K/G104T G24T/S28R/G35V (H:KT TRV) & V3-4_IGLJ1*01 V91L/S96P S57M (Fab, V domains shown, Fab made in E. coli: VH in plasmid A (CH1, His6 and Flag tags), VL in plasmid E (lambda CL); also called H:KT TRV & L:LP S57M) VH: EVQLVQSGAEVKKPGESLKISCKTSGYRFTSYWIVWVRQMPGKGLEWMGIIYPGDSDTRYSPSFQGQVTISADKSISTAYLQWSSLKASDTAMYYCARRKYSYTYDYFDYWGQGTLVTVSS VL: QTVVTQEPSFSVSPGGTVTLTCGLSSGSVSTSYYPSWYQQTPGQAPRTLIYSTNTRMSGVPDRFSGSILGNKAALTITGAQADDESDYYCLLYMGPGISYVFGTGTKVTVL | 0.3
Fab VH5-51_IGHD5-18*01>3_IGHJ4*01 G100K/G104T G24T/S28R/G35V (H:KT TRV) & V3-4_IGLJ1*01 V91L/S96P S57P (Fab, V domains shown, Fab made in E. coli: VH in plasmid A (CH1, His6 and Flag tags), VL in plasmid E (lambda CL); also called H:KT TRV & L:LP S57P) VH: EVQLVQSGAEVKKPGESLKISCKTSGYRFTSYWIVWVRQMPGKGLEWMGIIYPGDSDTRYSPSFQGQVTISADKSISTAYLQWSSLKASDTAMYYCARRKYSYTYDYFDYWGQGTLVTVSS VL: QTVVTQEPSFSVSPGGTVTLTCGLSSGSVSTSYYPSWYQQTPGQAPRTLIYSTNTRPSGVPDRFSGSILGNKAALTITGAQADDESDYYCLLYMGPGISYVFGTGTKVTVL | 0.36
Fab VH5-51_IGHD5-18*01>3_IGHJ4*01 G100K/G104T G24T/S28R/G35V (H:KT TRV) & V3-4_IGLJ1*01 V91L/S96P S57Q (Fab, V domains shown, Fab made in E. coli: VH in plasmid A (CH1, His6 and Flag tags), VL in plasmid E (lambda CL); also called H:KT TRV & L:LP S57Q) VH: EVQLVQSGAEVKKPGESLKISCKTSGYRFTSYWIVWVRQMPGKGLEWMGIIYPGDSDTRYSPSFQGQVTISADKSISTAYLQWSSLKASDTAMYYCARRKYSYTYDYFDYWGQGTLVTVSS VL: QTVVTQEPSFSVSPGGTVTLTCGLSSGSVSTSYYPSWYQQTPGQAPRTLIYSTNTRQSGVPDRFSGSILGNKAALTITGAQADDESDYYCLLYMGPGISYVFGTGTKVTVL | 0.21
Fab VH5-51_IGHD5-18*01>3_IGHJ4*01 G100K/G104T G24T/S28R/G35V (H:KT TRV) & V3-4_IGLJ1*01 V91L/S96P S57N (Fab, V domains shown, Fab made in E. coli: VH in plasmid A (CH1, His6 and Flag tags), VL in plasmid E (lambda CL); also called H:KT TRV & L:LP S57N) VH: EVQLVQSGAEVKKPGESLKISCKTSGYRFTSYWIVWVRQMPGKGLEWMGIIYPGDSDTRYSPSFQGQVTISADKSISTAYLQWSSLKASDTAMYYCARRKYSYTYDYFDYWGQGTLVTVSS VL: QTVVTQEPSFSVSPGGTVTLTCGLSSGSVSTSYYPSWYQQTPGQAPRTLIYSTNTRNSGVPDRFSGSILGNKAALTITGAQADDESDYYCLLYMGPGISYVFGTGTKVTVL | 0.24
Fab VH5-51_IGHD5-18*01>3_IGHJ4*01 G100K/G104T G24T/S28R/G35V (H:KT TRV) & V3-4_IGLJ1*01 V91L/S96P S57R (Fab, V domains shown, Fab made in E. coli: VH in plasmid A (CH1, His6 and Flag tags), VL in plasmid E (lambda CL); also called H:KT TRV & L:LP S57R) VH: EVQLVQSGAEVKKPGESLKISCKTSGYRFTSYWIVWVRQMPGKGLEWMGIIYPGDSDTRYSPSFQGQVTISADKSISTAYLQWSSLKASDTAMYYCARRKYSYTYDYFDYWGQGTLVTVSS VL: QTVVTQEPSFSVSPGGTVTLTCGLSSGSVSTSYYPSWYQQTPGQAPRTLIYSTNTRRSGVPDRFSGSILGNKAALTITGAQADDESDYYCLLYMGPGISYVFGTGTKVTVL | 0.18

Second part, the binder after the results:

ELISA Signal-blank (100 nM Fab) | Binder
0.3 | Fab VH5-51_IGHD5-18*01>3_IGHJ4*01 G100K/G104T G24T/S28R/G35V (H:KT TRV) & V3-4_IGLJ1*01 V91L/S96P S57T (Fab, V domains shown, Fab made in E. coli: VH in plasmid A (CH1, His6 and Flag tags), VL in plasmid E (lambda CL); also called H:KT TRV & L:LP S57T) VH: EVQLVQSGAEVKKPGESLKISCKTSGYRFTSYWIVWVRQMPGKGLEWMGIIYPGDSDTRYSPSFQGQVTISADKSISTAYLQWSSLKASDTAMYYCARRKYSYTYDYFDYWGQGTLVTVSS VL: QTVVTQEPSFSVSPGGTVTLTCGLSSGSVSTSYYPSWYQQTPGQAPRTLIYSTNTRTSGVPDRFSGSILGNKAALTITGAQADDESDYYCLLYMGPGISYVFGTGTKVTVL
0.05 | Fab VH5-51_IGHD5-18*01>3_IGHJ4*01 G100K/G104T G24T/S28R/G35V (H:KT TRV) & V3-4_IGLJ1*01 V91L/S96P T53R (Fab, V domains shown, Fab made in E. coli: VH in plasmid A (CH1, His6 and Flag tags), VL in plasmid E (lambda CL); also called H:KT TRV & L:LP T53R) VH: EVQLVQSGAEVKKPGESLKISCKTSGYRFTSYWIVWVRQMPGKGLEWMGIIYPGDSDTRYSPSFQGQVTISADKSISTAYLQWSSLKASDTAMYYCARRKYSYTYDYFDYWGQGTLVTVSS VL: QTVVTQEPSFSVSPGGTVTLTCGLSSGSVSTSYYPSWYQQTPGQAPRTLIYSRNTRSSGVPDRFSGSILGNKAALTITGAQADDESDYYCLLYMGPGISYVFGTGTKVTVL
0.34 | Fab VH5-51_IGHD5-18*01>3_IGHJ4*01 G100K/G104T G24T/S28R/G35V (H:KT TRV) & V3-4_IGLJ1*01 V91L/S96P S57V (Fab, V domains shown, Fab made in E. coli: VH in plasmid A (CH1, His6 and Flag tags), VL in plasmid E (lambda CL); also called H:KT TRV & L:LP S57V) VH: EVQLVQSGAEVKKPGESLKISCKTSGYRFTSYWIVWVRQMPGKGLEWMGIIYPGDSDTRYSPSFQGQVTISADKSISTAYLQWSSLKASDTAMYYCARRKYSYTYDYFDYWGQGTLVTVSS VL: QTVVTQEPSFSVSPGGTVTLTCGLSSGSVSTSYYPSWYQQTPGQAPRTLIYSTNTRVSGVPDRFSGSILGNKAALTITGAQADDESDYYCLLYMGPGISYVFGTGTKVTVL
0.08 | Fab VH5-51_IGHD5-18*01>3_IGHJ4*01 G100K/G104T G24T/S28R/G35V (H:KT TRV) & V3-4_IGLJ1*01 V91L/S96P T53G (Fab, V domains shown, Fab made in E. coli: VH in plasmid A (CH1, His6 and Flag tags), VL in plasmid E (lambda CL); also called H:KT TRV & L:LP T53G) VH: EVQLVQSGAEVKKPGESLKISCKTSGYRFTSYWIVWVRQMPGKGLEWMGIIYPGDSDTRYSPSFQGQVTISADKSISTAYLQWSSLKASDTAMYYCARRKYSYTYDYFDYWGQGTLVTVSS VL: QTVVTQEPSFSVSPGGTVTLTCGLSSGSVSTSYYPSWYQQTPGQAPRTLIYSGNTRSSGVPDRFSGSILGNKAALTITGAQADDESDYYCLLYMGPGISYVFGTGTKVTVL
0.12 | Fab VH5-51_IGHD5-18*01>3_IGHJ4*01 G100K/G104T G24T/S28R/G35V (H:KT TRV) & V3-4_IGLJ1*01 V91L/S96P S57W (Fab, V domains shown, Fab made in E. coli: VH in plasmid A (CH1, His6 and Flag tags), VL in plasmid E (lambda CL); also called H:KT TRV & L:LP S57W) VH: EVQLVQSGAEVKKPGESLKISCKTSGYRFTSYWIVWVRQMPGKGLEWMGIIYPGDSDTRYSPSFQGQVTISADKSISTAYLQWSSLKASDTAMYYCARRKYSYTYDYFDYWGQGTLVTVSS VL: QTVVTQEPSFSVSPGGTVTLTCGLSSGSVSTSYYPSWYQQTPGQAPRTLIYSTNTRWSGVPDRFSGSILGNKAALTITGAQADDESDYYCLLYMGPGISYVFGTGTKVTVL
